Data on five molecules can be found in PMC8757827, “A Novel Regulation of K-antigen Capsule Synthesis in Porphyromonas gingivalis Is Driven by the Response Regulator PG0720-Directed Antisense RNA”.

The target of data set [1] is T1, PG0720 response regulator (Porphyromonas gingivalis W83) (UniProt Q7MWB1).
T1 sequence: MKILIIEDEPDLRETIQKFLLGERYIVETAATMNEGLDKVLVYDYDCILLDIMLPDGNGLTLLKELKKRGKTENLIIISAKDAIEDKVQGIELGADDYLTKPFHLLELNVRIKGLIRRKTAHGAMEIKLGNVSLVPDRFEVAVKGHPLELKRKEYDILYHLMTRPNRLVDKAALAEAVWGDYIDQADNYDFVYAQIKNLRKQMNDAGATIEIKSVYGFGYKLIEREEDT
As to the kind of experiment: EMSA. The settings on record: 10 mM HEPES pH 7.8, 50 mM KCl, 5 mM MgCl2, 1 mM DTT, 1 mM EDTA, 1 ug poly(dI-dC), 1 ug BSA, 10% glycerol, 20 mM acetyl phosphate, room temperature 30 min …. For orientation: In EMSA bound probe runs differently from free probe, usually more slowly.

In data set [2] the target is T1, PG0720 response regulator (Porphyromonas gingivalis W83). Put plainly: DNase I footprinting. The settings on record: 10 mM HEPES pH 7.8, 50 mM KCl, 5 mM MgCl2, 1 mM DTT, 1 mM EDTA, 1 ug poly(dI-dC), 1 ug BSA, 10% glycerol, 20 mM acetyl phosphate, room temperature 30 min ….
Data set [3] has as its target T2, PG0720 response regulator (Porphyromonas gingivalis W83, UniProt Q7MWB1 1-229).
T2 sequence: T1 sequence
As to the kind of experiment: EMSA; 20 mM acetyl phosphate; 5 mM Mg2+; up to 140 pmol protein, 3 fmol DNA; 10 mM HEPES pH 7.8, 50 mM KCl, 5 mM MgCl2, 1 mM DTT, 1 mM EDTA, 1 ug poly(dI-dC), 1 ug BSA, 10% glycerol, 20 mM acetyl phosphate, room temperature 30 min, 10 ul (50 ul for footprinting). The following applies: protein: recombinant; tags: none (N-His-SUMO removed by SUMO Express protease); chain copies: 2; label: 5' biotin; blunt.

On to “ACACATCACAACAATATCTTCAATAACATACCCCACATCCGCCCGTCTTCACTACGATCTAAATAAAATTTCCCCAATGACAAAACCGCCTTATTTTAAAAATTACACATAACAGAAAAAAGAGTGATTCTCATTATACTTTCTTTGACAATCAAATCCTTTCAACGATGATTTTTGAGACCCTAATAGAGCGCAAAGGTAATTAATTATCGTCTATATTCCTAAATCCCAGTGGAATGATTCAGGAC (double strand) [PG0106 upstream promoter 248-bp]”, for which, in data set [1], the binding result is recorded as “no binding”.

For the molecule “CAAACAAGTGCGAATCCATATGTCAGAGATTCAAATCATAGAGGAAAGAGACTAAAAATTTTCAAACGCGATCGCCCTGACAGGCTACCCCCGGGGT (double strand) [asSuGR promoter 97-bp footprint probe]”, in data set [2], the binding result is reported as “binds”.

Regarding “TGTCAGGGCGATCGCGTTTGAAAATTTTTAGTCTCTTTCCTCTATGATTTGAATCTCTGACATATGG (double strand) [asSuGR promoter 67-bp]”, in data set [1], the binding result is on record as “binds”.

As to “TGTCAGGGCGATCGCGTTTGAAAATTTTTAGTCTCTTTCCTCTATGATTTGAATCTCTGACATATGGATTCGCACTTGTTTGATAATTGAATGTAGCAATCATGAGATCTATAAGTGTGTAACGGTTCAAATGCGATTGTCCTGAATCATTCCA (double strand) [asSuGR promoter 154-bp]”, in data set [1], the binding entry is “binds”.

B1: 77-bp region (77bpIR2) (dsDNA)
DNA 1: ATTCGCACTTGTTTGATAATTGAATGTAGCAATCATGAGATCTATAAGTGTGTAACGGTTCAAATGCGATTGTCCTG
DNA 2: CAGGACAATCGCATTTGAACCGTTACACACTTATAGATCTCATGATTGCTACATTCAATTATCAAACAAGTGCGAAT
As to B1, the binding result in data set [3] was “no binding”.
